Key:
[1] = biological target: T1, IL6R on the cell-surface of TF-1 cells (UniProt P08887 20-468, limits assumed); test: cell-based or functional assay
T1 sequence (looked up): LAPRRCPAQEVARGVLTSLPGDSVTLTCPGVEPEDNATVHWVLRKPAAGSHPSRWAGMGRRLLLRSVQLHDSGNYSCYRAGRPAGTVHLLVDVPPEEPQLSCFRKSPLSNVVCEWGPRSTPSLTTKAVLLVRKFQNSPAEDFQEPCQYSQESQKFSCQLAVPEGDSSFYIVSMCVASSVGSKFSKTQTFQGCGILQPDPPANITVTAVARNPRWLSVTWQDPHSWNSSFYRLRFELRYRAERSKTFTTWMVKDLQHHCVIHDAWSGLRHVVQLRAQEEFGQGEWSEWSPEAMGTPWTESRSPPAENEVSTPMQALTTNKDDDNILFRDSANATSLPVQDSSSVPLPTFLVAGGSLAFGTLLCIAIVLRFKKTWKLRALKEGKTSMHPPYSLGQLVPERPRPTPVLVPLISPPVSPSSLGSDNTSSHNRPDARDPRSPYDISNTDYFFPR

human IL6R [2] = biological target: T2, human IL6R (human, UniProt P08887 20-358, limits assumed); test: SPR (Biacore), purified Nanobody
T2 construct: Antigen of the Biacore experiments
T2 sequence (looked up): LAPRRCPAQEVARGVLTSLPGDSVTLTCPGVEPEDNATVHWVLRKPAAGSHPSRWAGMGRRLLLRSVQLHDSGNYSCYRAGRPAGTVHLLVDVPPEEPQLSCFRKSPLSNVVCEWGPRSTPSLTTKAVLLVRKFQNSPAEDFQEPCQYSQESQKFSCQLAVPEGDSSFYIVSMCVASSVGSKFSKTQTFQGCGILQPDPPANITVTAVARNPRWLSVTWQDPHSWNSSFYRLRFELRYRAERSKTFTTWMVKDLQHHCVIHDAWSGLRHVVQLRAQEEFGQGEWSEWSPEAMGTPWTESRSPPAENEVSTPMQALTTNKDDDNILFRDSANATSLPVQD
Procedure: Binding curves at different concentrations of purified Nanobody were recorded on Biacore and used to calculate values for ka, kd and Kd (Table B-4).

[3] = biological target: T3, soluble IL6R in human plasma (human, UniProt P08887 20-355, limits assumed); test: human plasma potency assay: competition ELISA, inhibition of human IL6 binding to soluble IL6R
T3 sequence (looked up): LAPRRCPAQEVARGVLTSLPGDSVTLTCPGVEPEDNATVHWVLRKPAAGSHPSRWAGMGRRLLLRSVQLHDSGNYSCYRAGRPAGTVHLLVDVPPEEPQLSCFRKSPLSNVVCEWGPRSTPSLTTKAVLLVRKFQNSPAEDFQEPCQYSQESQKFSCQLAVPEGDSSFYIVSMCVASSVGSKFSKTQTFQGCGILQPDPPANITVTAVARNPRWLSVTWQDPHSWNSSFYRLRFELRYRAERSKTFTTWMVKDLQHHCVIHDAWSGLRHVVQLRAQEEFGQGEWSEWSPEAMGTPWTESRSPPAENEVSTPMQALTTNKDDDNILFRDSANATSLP
Procedure: All 5 Nanobodies and the parent Nanobody were also tested in a plasma potency assay. In this assay different concentrations of Nanobody are mixed with soluble IL6R containing plasma from either human or cynomolgus monkey and a fixed concentration of human IL6. After 1 hour of incubation the mixture is transferred to a Maxisorp plate coated with the anti-IL6R MAb BN-12 (Diaclone). The amount of IL6 bound was determined by subsequent addition of biotinylated anti-IL6 polyclonal antibody (R&D Systems) and streptavidin-HRP. TMB was used as substrate. Substrate conversion was measured at 450 nm.

[4] = biological target: soluble IL6R in cynomolgus monkey plasma (cynomolgus monkey, UniProt A0A2K5WN54 60-396); test: cyno plasma potency assay: competition ELISA, inhibition of human IL6 binding to soluble IL6R
Sequence of soluble IL6R in cynomolgus monkey plasma (A0A2K5WN54 entry or part of it): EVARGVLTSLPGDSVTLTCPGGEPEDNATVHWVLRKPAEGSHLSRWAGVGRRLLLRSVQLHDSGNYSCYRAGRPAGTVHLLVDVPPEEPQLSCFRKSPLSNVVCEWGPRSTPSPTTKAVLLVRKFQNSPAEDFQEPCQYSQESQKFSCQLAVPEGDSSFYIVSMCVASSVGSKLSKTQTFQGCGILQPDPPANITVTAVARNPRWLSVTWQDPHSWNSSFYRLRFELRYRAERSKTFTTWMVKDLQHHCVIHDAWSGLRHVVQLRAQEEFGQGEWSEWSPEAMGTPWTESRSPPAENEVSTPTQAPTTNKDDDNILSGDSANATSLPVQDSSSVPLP

human IL6R [5] = biological target: T2, human IL6R; test: SPR (Biacore), periplasmic extract
Procedure: Selection outputs were analyzed by picking individual colonies and growing them overnight in 1 ml 2×YT (Yeast Tryptone) medium+100 ug/ml Carbenicillin at 37 C. Nanobody containing periplasmic extracts were prepared, diluted 1/10 in PBS and subsequently tested for antigen binding in ELISA. Clones with the highest ELISA signals were sequenced and analyzed on Biacore. […] The off-rate of the best clone from the CDR3 library was 7×10e-4 s-1.

human IL6R [6] = biological target: T2, human IL6R; test: SPR (Biacore), periplasmic extract; remark: listed apart in the source
Procedure: The oligos were dissolved in H₂O and subsequently pooled at a final concentration of 0.4 uM for each oligo. 5 and 1 ul of this mixture was used for assembly PCR in a 50 ul reaction volume. Full-length product was purified using the Qiagen PCR purification kit. The purified PCR product was then digested with SfiI and BsteEII and ligated into the corresponding sites of expression vector pAX51. E. coli TG1 cells were transformed with 2 ul of ligation mixture and plated on LB agar+100 ug/ml ampicillin+2% glucose. Plates were incubated overnight at 37° C. Individual colonies were picked and grown overnight in 2×YT+100 ug/ml ampicillin+2% glucose. Cloned Nanobody genes were amplified directly from these cultures with M13 forward and reverse primers. PCR products were purified and subsequently sequenced. In parallel the same panel of Nanobodies was expressed at 1 ml scale for 4 hours at 37° C. Periplasmic extracts were prepared and without further purification analyzed on Biacore for their ability to bind human IL6R.

B1: Nanobody IL6R65 (VHH)
VHH: EVQLVESGGGLVQPGGSLRLSCAASGSIFKVNAMGWYRQAPGKGRELVAGIISGGSTNYADSVKGRFTISRDNAKNTLYLQMNSLRPEDTAVYYCAFVTTNSDYDLGRDYWGQGTLVTVSS
notes: also called ILR65
Inhibition of IL6-dependent proliferation of TF-1 cells (3H-thymidine incorporation), IC50 [1]: 55 nM | Kd (human IL6R [2]): 4.3 nM | koff (human IL6R [2]): 0.00234 s⁻¹ | kon (human IL6R [2]): 539000 M⁻¹ s⁻¹ | IC50 [3]: 4.93 nM | IC50 [4]: 2.99 nM

B2: IL6R65PMP7D6 (VHH)
VHH: EVQLVESGGGLVQPGGSLRLSCAASGSIFRVNVMAWYRQAPGKGRELVAAVINGGTTTYADSVKGRFTISRDNAKNTLYLQMNSLRPEDTAVYYCAFVTTNSDYDLGRDYWGQGTLVTVSS
notes: Also expressed in E. coli and purified via IMAC
koff (human IL6R [5]): 0.00044 s⁻¹ | Inhibition of IL6-dependent proliferation of TF-1 cells (3H-thymidine incorporation), IC50 [1]: 3.7 nM | Kd (human IL6R [2]): 0.42 nM | koff (human IL6R [2]): 0.000279 s⁻¹ | kon (human IL6R [2]): 672000 M⁻¹ s⁻¹ | IC50 [3]: 0.19 nM | IC50 [4]: 0.09 nM

B3: IL6R65PMP7F4 (VHH)
VHH: EVQLVESGGGLVQPGGSLRLSCAASGTTFKVNVMAWYRQAPGKGRELVAGIINGGSTTYADSVKGRFTISRDNAKNTLYLQMNSLRPEDTAVYYCAFVTTNSDYDLGRDYWGQGTLVTVSS
notes: as for B2
koff (human IL6R [5]): 0.00026 s⁻¹ | Inhibition of IL6-dependent proliferation of TF-1 cells (3H-thymidine incorporation), IC50 [1]: 5.2 nM | Kd (human IL6R [2]): 0.48 nM | koff (human IL6R [2]): 0.000292 s⁻¹ | kon (human IL6R [2]): 609000 M⁻¹ s⁻¹ | IC50 [3]: 0.24 nM | IC50 [4]: 0.09 nM

B4: IL6R65PMP7C4 (VHH)
VHH: EVQLVESGGGLVQPGGSLRLSCAASGTTFRINVMAWYRQAPGKGRELVAGIITNGSTSYADSVKGRFTISRDNAKNTLYLQMNSLRPEDTAVYYCAFVTTNSDYDLGRDYWGQGTLVTVSS
notes: as for B2
koff (human IL6R [5]): 0.00043 s⁻¹ | Inhibition of IL6-dependent proliferation of TF-1 cells (3H-thymidine incorporation), IC50 [1]: 2.5 nM | Kd (human IL6R [2]): 0.34 nM | fold improvement of Kd relative to the parent molecule (IL6R65) (human IL6R [2]): 13 fold | koff (human IL6R [2]): 0.000177 s⁻¹ | kon (human IL6R [2]): 527000 M⁻¹ s⁻¹ | IC50 [3]: 0.21 nM | IC50 [4]: 0.08 nM

B5: 32C9PMP2_B5 (VHH, name in Kabat numbering)
VHH: EVQLVESGGGLVQAGGSLRLSCAASGFTFSDYDIGWVRQAPGKGREGVSGISSSDGNTYYADSVKGRFTISSDNAKNTVYLQMNSLRPEDTAVYYCAAEPPDSSWYLDGSPEFFKYWGQGTLVTVSS
notes: Humanized 32C9 variant
koff (human IL6R [6]): 0.000803 s⁻¹

B6: 32C9PMP2_F3 (VHH, name in Kabat numbering)
VHH: EVQLVESGGGLVQAGGSLRLSCAASGFTFDDYDIGWVRQAPGKGREGVSGISSSDGNTYYADSVKGRFTISSDNAKNTVYLQMNSLKAEDTAVYYCAAEPPDSSWYLDGSPEFFKYWGQGTLVTVSS
notes: Humanized 32C9 variant
koff (human IL6R [6]): 0.000804 s⁻¹

B7: 32C9PMP2_C6 (VHH, name in Kabat numbering)
VHH: EVQLVESGGGLVQAGGSLRLSCAASGFTFSDYDIGWVRQAPGKGREWVSGISSSDGNTYYADSVKGRFTISSDNAKNTLYLQMNSLRPEDTAVYYCAAEPPDSSWYLDGSPEFFKYWGQGTQVTVSS
notes: Humanized 32C9 variant
koff (human IL6R [6]): 0.00426 s⁻¹

B8: 32C9PMP2_G4 (VHH, name in Kabat numbering)
VHH: EVQLVESGGGLVQAGGSLRLSCAASGFTFDDYDIGWVRQAPGKGREGVSGISSSDGNTYYADSVKGRFTISRDNAKNTLYLQMNSLKAEDTAVYYCAAEPPDSSWYLDGSPEFFKYWGQGTQVTVSS
notes: Humanized 32C9 variant
koff (human IL6R [6]): 0.0007 s⁻¹

B9: 32C9PMP2_F12 (VHH, name in Kabat numbering)
VHH: EVQLVESGGGLVQAGGSLRLSCAASGFTFDDYDIGWVRQAPGKGREGVSGISSSDGNTYYADSVKGRFTISSDNAKNTLYLQMNSLRPEDTAVYYCAAEPPDSSWYLDGSPEFFKYWGQGTLVTVSS
notes: Humanized 32C9 variant
koff (human IL6R [6]): 0.000584 s⁻¹

B10: 32C9PMP2_B11 (VHH, name in Kabat numbering)
VHH: EVQLVESGGGLVQAGGSLRLSCAASGFTFDDYDIGWVRQAPGKEREWVSGISSSDGNTYYADSVKGRFTISSDNAKNTLYLQMNSLRPEDTAVYYCAAEPPDSSWYLDGSPEFFKYWGQGTQVTVSS
notes: Humanized 32C9 variant
koff (human IL6R [6]): 0.00768 s⁻¹

B11: 32C9PMP2_E1 (VHH, name in Kabat numbering)
VHH: EVQLVESGGGLVQPGGSLRLSCAASGFTFDDYDIGWFRQAPGKELEGVSGISSSDGNTYYADSVKGRFTISSDNAKNTVYLQMNSLRPEDTAVYYCAAEPPDSSWYLDGSPEFFKYWGQGTQVTVSS
notes: Humanized 32C9 variant
koff (human IL6R [6]): 0.00166 s⁻¹

B12: Nanobody 32C9 (VHH)
VHH: EVQLVESGGGLVQAGGSLRLSCAASGFTFDDYDIGWFRQAPGKEREGVSGISSSDGNTYYADSVKGRFTISSDNAKNTVYLQMNSLKPEDTAVYYCAAEPPDSSWYLDGSPEFFKYWGQGTQVTVSS
notes: Tested as periplasmic extract; also called 32C9 WT; IL6R04
koff (human IL6R [6]): 0.000162 s⁻¹

B13: 32C9PMP2_D10 (VHH, name in Kabat numbering)
VHH: EVQLVESGGGLVQPGGSLRLSCAASGFTFSDYDIGWVRQAPGKELEGVSGISSSDGNTYYADSVKGRFTISSDNAKNTVYLQMNSLRPEDTAVYYCAAEPPDSSWYLDGSPEFFKYWGQGTLVTVSS
notes: Humanized 32C9 variant
koff (human IL6R [6]): 0.00707 s⁻¹

B14: 32C9PMP2_B12 (VHH, name in Kabat numbering)
VHH: EVQLVESGGGLVQPGGSLRLSCAASGFTFSDYDIGWFRQAPGKEREWVSGISSSDGNTYYADSVKGRFTISSDNAKNTVYLQMNSLKAEDTAVYYCAAEPPDSSWYLDGSPEFFKYWGQGTQVTVSS
notes: Humanized 32C9 variant
koff (human IL6R [6]): 0.00564 s⁻¹

B15: 32C9PMP2_E2 (VHH, name in Kabat numbering)
VHH: EVQLVESGGGLVQPGGSLRLSCAASGFTFSDYDIGWFRQAPGKELEGVSGISSSDGNTYYADSVKGRFTISSDNAKNTLYLQMNSLKAEDTAVYYCAAEPPDSSWYLDGSPEFFKYWGQGTQVTVSS
notes: Humanized 32C9 variant
koff (human IL6R [6]): 0.00121 s⁻¹

B16: 32C9PMP2_C3 (VHH, name in Kabat numbering)
VHH: EVQLVESGGGLVQAGGSLRLSCAASGFTFSDYDIGWVRQAPGKEREWVSGISSSDGNTYYADSVKGRFTISSDNAKNTLYLQMNSLKAEDTAVYYCAAEPPDSSWYLDGSPEFFKYWGQGTQVTVSS
notes: Humanized 32C9 variant
koff (human IL6R [6]): 0.0138 s⁻¹

B17: 32C9PMP2_G12 (VHH, name in Kabat numbering)
VHH: EVQLVESGGGLVQAGGSLRLSCAASGFTFSDYDIGWFRQAPGKGREGVSGISSSDGNTYYADSVKGRFTISRDNAKNTLYLQMNSLKAEDTAVYYCAAEPPDSSWYLDGSPEFFKYWGQGTQVTVSS
notes: Humanized 32C9 variant
koff (human IL6R [6]): 0.000197 s⁻¹

B18: P32C9PMP2_E12 (VHH, name in Kabat numbering)
VHH: EVQLVESGGGLVQAGGSLRLSCAASGFTFDDYDIGWFRQAPGKGREGVSGISSSDGNTYYADSVKGRFTISRDNAKNTVYLQMNSLRPEDTAVYYCAAEPPDSSWYLDGSPEFFKYWGQGTLVTVSS
notes: Humanized 32C9 variant
koff (human IL6R [6]): 0.000247 s⁻¹

Source: patent US20100292083A1 (Ablynx, published 2010)
